# Patent US5792629A, “Isolated DNA encoding novel protease inhibitory polypeptide” (Mochida Pharmaceutical Co., Ltd., priority 1990, dated 1998)
# T1: Human neutrophil elastase (Homo sapiens, UniProt P08246)
# T1 construct: purchased CALBIOCHEM Type V
# T1 sequence (P08246 30-267): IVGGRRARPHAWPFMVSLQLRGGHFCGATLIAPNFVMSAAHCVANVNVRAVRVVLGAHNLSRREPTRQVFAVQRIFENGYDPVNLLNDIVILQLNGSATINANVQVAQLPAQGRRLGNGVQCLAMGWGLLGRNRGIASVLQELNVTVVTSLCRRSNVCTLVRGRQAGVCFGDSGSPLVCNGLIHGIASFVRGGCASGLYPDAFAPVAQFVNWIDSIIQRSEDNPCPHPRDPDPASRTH
# Legend:
# [1] = target: T1, Human neutrophil elastase; test: Human elastase-inhibiting activity, substrate STANA; format: biochemical; settings: purified sample, various concentrations; remaining activity vs buffer control (FIG. 15A-C)
# Experimental: The purified sample obtained in Example 1-(5) was dissolved in 100 μl of distilled water. Concentration of this solution was determined based on its bovine trypsin-inhibiting activity using the UTI as a standard. The solution was then diluted to various concentration levels with 0.1% BSA/27 mM CaCl2 /133 mM Tris-HCl buffer (pH 7.5) for use in the activity measurement. The aforementioned UTI was also diluted in the same manner. Human elastase-inhibiting activities in the test samples and the positive control were measured in accordance with the method of Ogawa et al. (Ogawa, M. et al., Res. Commun. Chem. Pathol. Pharmacol., vol.55, pp.271-274, 1987) using a synthetic compound STANA (Peptide Institute Inc.) as a substrate.
# Human neutrophil elastase (Type V, CALBIOCHEM) was dissolved in 27 mM CaCl2 /[…] Tris-HCl buffer (pH 7.5) to a concentration of 100 μg/ml and the solution was further diluted with 0.1% BSA/27 mM CaCl2 /133 mM Tris-HCl buffer (pH 7.5) to prepare 4 μg/ml of elastase solution. 100 mM solution of STANA was prepared by dissolving it in N-methyl-2-pyrrolidone and the solution was further diluted with 0.1% BSA/27 mM CaCl2 /133 mM Tris-HCl buffer (pH 7.5) to prepare 20 mM of STANA solution.
# Next, 50 μl of the test sample or positive control was mixed with 50 μl of the elastase solution and 50 μl of 0.1% BSA/27 mM CaCl2 /133 mM Tris-HCl buffer (pH 7.5). After incubation at 37° C. for 10 minutes, 50 μl of the STANA solution was added to the mixture to start the reaction. The reaction was carried out at 37° C. for 20 minutes and then stopped by adding 50 μl of 50% acetic acid solution to the reaction mixture. Thereafter, absorbance at 405 nm was measured using a spectrophotometer.
# In this instance, in order to eliminate absorbance of various solutions in the reaction mixture, a blank solution was prepared by mixing 50 μl of the elastase solution with 50 μl of 50% acetic acid and then with 50 μl of each test sample or the positive control, 50 μl of 0.1% BSA/27 mM CaCl2 /133 mM Tris-HCl buffer (pH 7.5) and with 50 μl of the STANA solution.
# In this figure, human elastase remaining activity was expressed by percentage based on the absorbance of a control reaction mixture in which 50 μl of 0.1% BSA/27 mM CaCl2 /133 mM Tris-HCl buffer (pH 7.5) was used instead of the test sample or the positive control.
# human plasma kallikrein = target: T2, human plasma kallikrein (Homo sapiens, UniProt P03952); test: Human plasma kallikrein-inhibiting activity, substrate S-2302; format: biochemical; settings: for human plasma kallikrein-inhibiting activity: purified sample, various concentrations, remaining activity vs buffer control (FIG. 17A-C)
# T2 construct: purchased Sigma Chemical Co
# Experimental: The purified sample obtained in Example 1-(5) was dissolved in 100 μl of distilled water. Concentration of this solution was determined based on its bovine trypsin-inhibiting activity using the aforementioned UTI as a standard. The solution was then diluted to various concentration levels with 0.1% BSA/150 mM NaCl/50 mM Tris-HCl buffer (pH 8.3) for use in the activity measurement. The UTI was also diluted in the same manner. Using a synthetic compound S-2302 (Daiichi Pure Chemicals Co., Ltd.) as a substrate, human plasma kallikrein-inhibiting activities of the diluted test samples and the positive control were measured in accordance with the method of Ohno et al. (Ohno,H. et al., Thromb. Res., vol.19, pp.579-588, 1980) as follows.
# 0.26 U/ml solution of human plasma kallikrein (Sigma Chemical Co.) was diluted with 0.1% BSA/150 mM NaCl/50 mM Tris-HCl buffer (pH 8.3) to prepare 0.08 U/ml of plasma kallikrein solution. 4 mM solution of S-2302 was prepared by dissolving it in distilled water and the solution was further diluted with 0.1% BSA/150 mM NaCl/50 mM Tris-HCl buffer (pH 8.3) to prepare 2 mM solution of S-2302.
# Next, 25 μl of the test sample or positive control was mixed with 75 μl of 0.1% BSA/150 mM NaCl/50 mM Tris-HCl buffer (pH 8.3) and 50 μl of the plasma kallikrein solution. After incubation at 37° C. for 10 minutes, 50 μl of the S-2302 solution was added to the mixture to start the reaction. The reaction was carried out at 37° C. for 8 minutes and then stopped by adding 25 μl of 50% acetic acid solution to the reaction mixture. Thereafter, absorbance at 405 nm was measured using a spectrophotometer.
# In this instance, in order to eliminate absorbance of various solutions in the reaction mixture a blank solution was prepared by mixing 50 μl of the plasma kallikrein solution with 25 μl of 50% acetic acid and then with 25 μl of each test sample or the positive control, 75 μl of 0.1% BSA/150 mM NaCl/50 mM Tris-HCl buffer (pH 8.3) and with 50 μl of the S-2302 solution.
# In this figure, human plasma kallikrein remaining activity was expressed by percentage based on the absorbance of a control reaction mixture in which 25 μl of 0.1% BSA/150 mM NaCl/50 mM Tris-HCl buffer (pH 8.3) was used instead of the test sample or the positive control.
# T2 sequence (P03952 20-638): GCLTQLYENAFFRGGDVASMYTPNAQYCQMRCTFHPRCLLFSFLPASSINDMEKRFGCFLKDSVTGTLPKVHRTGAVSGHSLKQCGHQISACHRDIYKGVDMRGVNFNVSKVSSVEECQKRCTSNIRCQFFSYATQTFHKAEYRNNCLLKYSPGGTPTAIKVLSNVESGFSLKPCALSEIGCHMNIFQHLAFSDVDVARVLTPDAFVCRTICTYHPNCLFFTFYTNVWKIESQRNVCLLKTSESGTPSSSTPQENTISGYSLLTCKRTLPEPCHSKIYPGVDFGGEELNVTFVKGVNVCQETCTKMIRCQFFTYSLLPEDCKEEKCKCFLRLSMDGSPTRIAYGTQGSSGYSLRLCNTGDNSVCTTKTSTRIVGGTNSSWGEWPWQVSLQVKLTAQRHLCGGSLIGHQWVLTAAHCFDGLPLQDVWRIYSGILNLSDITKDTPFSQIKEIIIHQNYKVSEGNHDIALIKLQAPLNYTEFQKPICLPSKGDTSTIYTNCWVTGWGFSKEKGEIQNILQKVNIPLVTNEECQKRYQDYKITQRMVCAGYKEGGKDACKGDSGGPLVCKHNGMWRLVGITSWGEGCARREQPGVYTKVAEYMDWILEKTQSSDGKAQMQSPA
Molecule,human elastase-inhibiting activity [1],human plasma kallikrein-inhibiting activity (human plasma kallikrein),"plasma kallikrein-inhibiting activity (human plasma kallikrein; experiments of the inventors, stated in the background)"
"CC51: polypeptide defined by the amino acid sequence of formula 1, purified from culture supernatant of E. coli JE5505 (pM560) (CNLPIVRGPCRAFIQLWAFDAVKGKCVLFPYGGCQGNGNKFYSEKECREYC)",activity was found,activity was found,–
"TL66: polypeptide defined by formula 8; known enzyme-digested fragment of urinary trypsin inhibitor, made in E. coli JE5505 (pM551) (protein) TVAACNLPIVRGPCRAFIQLWAFDAVKGKCVLFPYGGCQGNGNKFYSEKECREYCGVPGDGDEELL",activity was found,activity was found,–

# Continued, values first:
human elastase-inhibiting activity [1],human plasma kallikrein-inhibiting activity (human plasma kallikrein),"plasma kallikrein-inhibiting activity (human plasma kallikrein; experiments of the inventors, stated in the background)",Molecule
activity was found,activity was not found,no plasma kallikrein-inhibiting activity,"UTI: urinary trypsin inhibitor purified from human urine (Mochida Pharmaceutical), used as positive control (protein, glycoprotein (sugar moieties, as the filing says in general of UTI)) AVLPQEEEGSGGGQLVTEVTKKEDSCQLGYSAGPCMGMTSRYFYNGTSMACETFQYGGCMGNGNNFVTEKECLQTCRTVAACNLPIVRGPCRAFIQLWAFDAVKGKCVLFPYGGCQGNGNKFYSEKECREYCGVPGDGDEELLRFSN"
activity was found,activity was found,–,"TN70: polypeptide defined by the amino acid sequence of formula 3, purified from culture supernatant of E. coli JE5505 (pM552) (protein) TVAACNLPIVRGPCRAFIQLWAFDAVKGKCVLFPYGGCQGNGNKFYSEKECREYCGVPGDGDEELLRFSN"
